Source: US20030143665A1 (NEW YORK UNIVERSITY, published 2003)

Experiments:
[1] = target: T1, recombinant CIRL (calcium-independent receptor of α-latrotoxin), full-length, expressed in COS cells (rat, UniProt O88917 22-1515)
T1 sequence: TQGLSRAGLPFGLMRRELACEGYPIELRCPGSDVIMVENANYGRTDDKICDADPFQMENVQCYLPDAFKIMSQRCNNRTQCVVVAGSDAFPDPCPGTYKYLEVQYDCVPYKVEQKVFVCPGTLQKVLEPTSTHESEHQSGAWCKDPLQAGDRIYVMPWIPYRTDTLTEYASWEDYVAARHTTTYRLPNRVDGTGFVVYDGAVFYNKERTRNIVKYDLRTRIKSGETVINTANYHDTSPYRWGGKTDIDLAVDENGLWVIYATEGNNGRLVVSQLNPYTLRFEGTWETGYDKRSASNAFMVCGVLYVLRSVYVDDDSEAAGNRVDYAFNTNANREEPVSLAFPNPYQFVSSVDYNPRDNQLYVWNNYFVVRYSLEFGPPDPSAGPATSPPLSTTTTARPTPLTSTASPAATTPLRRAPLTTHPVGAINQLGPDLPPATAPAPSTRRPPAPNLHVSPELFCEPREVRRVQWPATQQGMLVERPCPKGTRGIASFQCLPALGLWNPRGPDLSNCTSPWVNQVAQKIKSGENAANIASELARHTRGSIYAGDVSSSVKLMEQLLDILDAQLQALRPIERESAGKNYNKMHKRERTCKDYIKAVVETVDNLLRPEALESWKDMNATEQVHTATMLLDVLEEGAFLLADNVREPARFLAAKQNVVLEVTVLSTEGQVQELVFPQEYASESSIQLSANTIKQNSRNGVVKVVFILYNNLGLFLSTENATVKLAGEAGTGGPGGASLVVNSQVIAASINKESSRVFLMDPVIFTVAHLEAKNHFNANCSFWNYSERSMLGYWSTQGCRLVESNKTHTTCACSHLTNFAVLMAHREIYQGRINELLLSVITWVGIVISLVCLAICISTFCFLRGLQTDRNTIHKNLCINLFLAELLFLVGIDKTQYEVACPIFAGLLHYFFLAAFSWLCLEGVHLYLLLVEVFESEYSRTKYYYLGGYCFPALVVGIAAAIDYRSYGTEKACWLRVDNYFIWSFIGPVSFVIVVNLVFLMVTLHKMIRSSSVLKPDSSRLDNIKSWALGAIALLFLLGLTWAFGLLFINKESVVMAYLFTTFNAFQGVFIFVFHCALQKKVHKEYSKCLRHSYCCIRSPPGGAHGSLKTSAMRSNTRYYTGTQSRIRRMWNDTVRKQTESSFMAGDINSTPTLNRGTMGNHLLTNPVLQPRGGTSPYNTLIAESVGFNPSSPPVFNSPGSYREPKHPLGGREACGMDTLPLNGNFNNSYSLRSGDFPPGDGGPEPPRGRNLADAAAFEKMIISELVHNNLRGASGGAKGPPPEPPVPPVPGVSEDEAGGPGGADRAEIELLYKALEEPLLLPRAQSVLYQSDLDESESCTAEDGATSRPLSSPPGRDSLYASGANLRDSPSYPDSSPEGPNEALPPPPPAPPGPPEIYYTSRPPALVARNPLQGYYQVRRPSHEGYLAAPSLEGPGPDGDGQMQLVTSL

[2] = target: T2, native CIRL of rat brain (calcium-independent α-latrotoxin binding sites in rat brain membranes); affinity … (rat, UniProt O88917 22-1515)
T2 sequence: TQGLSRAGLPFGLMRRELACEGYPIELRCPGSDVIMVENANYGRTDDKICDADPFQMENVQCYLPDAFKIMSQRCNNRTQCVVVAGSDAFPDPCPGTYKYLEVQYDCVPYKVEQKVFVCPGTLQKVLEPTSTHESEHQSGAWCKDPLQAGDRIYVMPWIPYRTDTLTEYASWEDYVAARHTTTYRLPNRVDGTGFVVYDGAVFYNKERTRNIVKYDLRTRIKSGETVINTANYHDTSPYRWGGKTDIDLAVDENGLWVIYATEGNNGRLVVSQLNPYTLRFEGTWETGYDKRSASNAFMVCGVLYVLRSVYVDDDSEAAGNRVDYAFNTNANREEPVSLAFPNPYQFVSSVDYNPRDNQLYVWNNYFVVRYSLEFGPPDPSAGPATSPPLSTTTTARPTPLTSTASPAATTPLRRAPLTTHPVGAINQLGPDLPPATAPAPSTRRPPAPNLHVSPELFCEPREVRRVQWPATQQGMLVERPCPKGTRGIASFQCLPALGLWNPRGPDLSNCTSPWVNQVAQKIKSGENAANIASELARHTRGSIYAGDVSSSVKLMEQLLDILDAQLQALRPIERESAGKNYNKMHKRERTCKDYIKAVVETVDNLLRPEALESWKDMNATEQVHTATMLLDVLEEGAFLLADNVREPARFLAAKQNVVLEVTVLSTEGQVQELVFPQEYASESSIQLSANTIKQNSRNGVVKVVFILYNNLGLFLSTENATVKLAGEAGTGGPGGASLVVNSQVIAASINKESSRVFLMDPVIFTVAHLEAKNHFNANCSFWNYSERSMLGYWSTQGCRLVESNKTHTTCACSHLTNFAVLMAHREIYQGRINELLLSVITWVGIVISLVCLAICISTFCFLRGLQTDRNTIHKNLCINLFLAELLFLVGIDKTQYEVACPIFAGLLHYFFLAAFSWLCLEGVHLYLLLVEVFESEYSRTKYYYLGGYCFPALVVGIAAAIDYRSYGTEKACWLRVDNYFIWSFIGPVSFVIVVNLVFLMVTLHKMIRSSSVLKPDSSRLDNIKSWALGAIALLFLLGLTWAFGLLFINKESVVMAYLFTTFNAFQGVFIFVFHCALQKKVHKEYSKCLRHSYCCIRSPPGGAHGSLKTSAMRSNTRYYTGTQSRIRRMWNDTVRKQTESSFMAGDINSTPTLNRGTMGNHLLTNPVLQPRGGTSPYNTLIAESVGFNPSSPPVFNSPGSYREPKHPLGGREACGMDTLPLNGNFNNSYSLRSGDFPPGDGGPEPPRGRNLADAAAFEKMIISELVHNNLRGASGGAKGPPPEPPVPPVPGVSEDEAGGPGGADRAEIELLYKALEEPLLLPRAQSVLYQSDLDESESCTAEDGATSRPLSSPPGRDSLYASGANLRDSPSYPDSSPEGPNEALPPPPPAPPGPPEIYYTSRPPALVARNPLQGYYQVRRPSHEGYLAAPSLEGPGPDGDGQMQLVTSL

B1: α-latrotoxin (ligand)
chain: EGEDLTLEEKAEICSELELQQKYVDIASNIIGDLSSLPIAGKIAGTIAAAAMTATHVASGRLDIEQTLLGCSDLPFDQIKEVLENRFNEIDRKLDSHSAALEEITKLVEKSISVVEKTRKQMNKRFDEVMKSIQDAKVSPIISKINNFARYFDTEKERIRGLKLNDYILKLEEPNGILLHFKESRTPTDDSLQAPLFSIIEEGYAVPKSIDDELAFKVLYALLYGTQTYVSVMFFLLEQYSFLANHYYEKGYLEKYDEYFNSLNNVFLDFKSSLVGTGTSNNEGLLDRVLQVLMTVKNSEFLGLEKNGVDEMLNEKINLFNKIKEEIEGKQKMTLSETPENFAQISFDKDITTPIGDWRDGREVRYAVQYASETLFSKISHWSDPVSVREKACPTLRMPVDQTRRNVLVFRKFDSSKPQLVGEITPYLSNFIDIDRDLYNAASNPDSAVGFKEFTKLNYDGANIRATFDHGRTVFHAAAKSGNDKIMFGLTFLAKSTELNQPDKKGYTPIHVAADSGNAGIVNLLIQRGVSINSKTYHFLQTPLHLAAQRGFVTTFQRLMESPEININERDKDGFTPLHYAIRGGERILEAFLNQISIDVNAKSNTGLTPFHLAIIKNDWPVASTLLGSKKVDINAVDENNITALHYAAILGYLETTKQLINLKEINANVVSSPGLLSALHYAILYKHDDVASFLMRSSNVNVNLKALGGITPLHLAVIQGRKQILSLMFDIGVNIEQKTDEKYTPLHLAAMSKYPELIQILLDQGSNFEAKTNSGATPLHLATFKGKSQAALILLNNEVNWRDTDENGQMPIHGAAMTGLLDVAQAIISIDATVVDIEDKNSDTPLNLAAQNSHIDVIKYFIDQGADINTRNKKGLAPLLAFSKKGNLDMVKYLFDKNANVYIADNDGMNFFYYAVQNGHLNIVKYAMSEKDKFEWSNTDNNRRDECPNEECAISHFAVCDAVQFDRIEIVKYFVGTLGNFAICGPLHQAARYGHLDIVKYLVEEEFLSVDGSKTDTPLCYASENGHFTVVQYLVSNGAKVNHDCGNGMTAIDKAITKNHLQVVQFLAANGVDFRRKNSRGTTPFLTAVAENALHIAEYLIREKRQDININEQNVDKDTALHLAVYYKNLQMIKLLIKYGIDVTIRNAYDKTALDIAIDAKFSNIVEYLKTKSGKFRR
modifications: 125I label (chloramine T procedure) in the binding and immunoprecipitation assays; coupled to Sepharose in the affinity chromatography
B1 was tested, and the Kd [1] was 0.16 nM and the Kd [2] was 0.28 nM.
